Columns and labels:
[1] = system: phosphorylated myosin light chain (pMLC); assay: Actomyosin cables / pMLC activation after wound scratch; assay type: cell-based, human
Description: Indicated cells post-manipulation were washed twice with cold Phosphate buffered saline (PBS) and lysed with cold 1% NP-40 lysis buffer supplemented with 1× protease inhibitor cocktail (Roche Applied Biosciences) for 15 mins at 4° C. The cell lysate was centrifuged at 13,000 rpm for 15 min. This was followed by protein estimation using Bradford reagent. Subsequently, […] of total protein was mixed with an equal volume of 2× Laemmli sample buffer and heated at 95° C. for 5 mins. This was followed by resolution with SDS-PAGE gel. The resolved proteins were transferred onto nitrocellulose membrane and blocked in 5% skimmed milk reconstituted in 1×PBS containing 0.1% Tween-20, and probed overnight with the respective primary antibody. The membrane was then washed with 1×PBS supplemented with 0.1% Tween-20: three times at 15 min intervals. This was followed by 1 h incubation in conjugated horseradish peroxidase HRP secondary antibody (Santa Cruz Biotechnology). Post-incubation, the blot was again washed three times as above and then overlaid with enhanced chemiluminescence (ECL) substrate (Pierce/Bio-Rad) and visualized on X-ray film by image processor or digitally by Chemidoc analyzer (Bio-Rad). The density of the various bands was quantified using the Image-J software.
Cells were cultured on eight-well chamber slides or coverslips over-night. Cells were then washed twice with PBS and fixed for 15 min with 4% paraformaldehyde. Subsequently, the cells were permeabilized for 15 min with 0.1% Triton X in Phosphate buffered saline containing 1 mM Ca^+2 and 1 mM Mg^+2 (PBSCM) at room temperature. The permeabilized cells were incubated with indicated antibodies in fluorescent dilution buffer (FDB) for 1-2 h at RT or overnight at 4° C., followed by 5 washes with PBSCM and incubation with secondary antibody; Alexa Fluor (Thermo Fisher Scientific) for 1 h at RT. Slides were again washed five times with PBSCM and mounted with Vectashield medium containing DAPI. The stained cells were then imaged by a Zeiss confocal microscope. The images were processed and analyzed by Zen blue software. Intensity measurements were acquired using tool selection parameter in image analysis within the Zen blue software.
(§1) A confluent monolayer of control and Agrin depleted cells in a 6-well plate was subjected to a unidirectional scratch using a 20 μl pipette tip. This was followed by washing with 1×PBS at room temperature and incubation in complete culture media at 37° C. and 5% CO2 with or without sAgrin used as indicated. Phase contrast images of the wound area were taken periodically at the indicated time-points. For some wound-healing migration assays, keratinocytes were cultured on either soft or stiff substrates within a stencil barrier (Nalge Nunc., Inc) for 18 h. Upon removal of the barrier, the cells were allowed to migrate and imaged using an Axiovert 200 inverted microscope at indicated time-points.

HaCaT cells = assay: Traction force microscopy and PIV of collective migration; assay type: cell-based, human
Description: Substrate preparation—Two-part silicone elastomer, DOWSIL CY52-276 (Dow Inc.), is first mixed thoroughly in a 1:1 weight ratio. The mixture is then poured into a 35 mm glass-bottom culture dish (iwaki 3930-035, Asahi Techno Glass Corporation, Japan) placed on a level surface, to a thickness of ˜500 μm. After pre-curing overnight, the silicone coated culture dish is further baked for 2 hours at 80° C. to fully cure. To maximize subsequent microsphere attachment, the silicone film is pre-treated with (3-aminopropyl) triethoxysilane (A3648, Sigma-Aldrich). To silanize, a 1 ml solution containing 96% v/v, 2% v/v APTES and 1% v/v acetic acid (A6283, Sigma Aldrich) is added to the glass-bottom culture dish, covering the whole silicone film, and left for 10 minutes to react. The silicone film is then twice rinsed with 96% v/v ethanol and followed by a quick dip in Milli-Q water to remove all the solution: removing solution from the film this way is preferred over blow-drying with nitrogen gas because the latter may introduce dust to the surface which subsequently affects the uniformity of attached microsphere distribution. Following this, the culture-dish is baked at 80° C. for another 2 hours to promote siloxane bond formation. For the physisorption of fluorescent latex microspheres on to the silicone film, 6 μl of 100 nm orange fluorescent (540/560) carboxylate-modified microspheres (F8800, ThermoFisher Scientific) is first diluted in 10 ml of Milli-Q water and sonicated for 10 minutes. The diluted microspheres are then passed through a 0.22 μm filter directly into a 15 ml falcon tube containing 500 μl of 500 mM MES buffer, pH 6.0 (M3671, Sigma Aldrich). The microspheres are then sonicated again for 10 minutes before being added to cover the APTES silanized silicone film within the culture dish previously prepared. The solution was left for 5 minutes to allow the microspheres to attach. […] The stiffness of silicone substrates used for TFM were determined by atomic force microscopy as per previously established protocols as described in the section below. […]

[2] = system: keratinocytes and dermal fibroblasts; assay: In vitro scratch wound-healing assay; assay type: cell-based, human and mouse
Description: as §1

[3] = Agrin depleted cells supplemented with sAgrin

B1: sAgrin: C-terminus recombinant Agrin fragment containing 8 amino acid 'Z8' insert and LG3 domain (SEQ ID NO: 7), His-tagged, expressed in E. coli (protein)
chain: DTLAFDGRTFVEYLNAVTESELANEIPVEKALQSNHFELSLRTEATQGLVLWSGKATERADYVALAIVDGHLQLSYNLGSQPVVLRSTVPVNTNRWLRVVAHREQREGSLQVGNEAPVTGSSPLGATQLDTDGALWLGGLPELPVGPALPKAYGTGFVGCLRDVVVGRHPLHLLEDAVTKPELRPCPTP
modifications: His tag
[1]; 10 μg/ml sAgrin 18 h
  pMLC recruitment to wound edges: strong recruitment of pMLC to wound edges forming stable actomyosin cables
[1]; 10 μg/ml sAgrin 18 h, within 4 h post-wounding
  actomyosin cables in Agrin deprived cells: restored
[1]; MMP12 siRNA, 10 μg/ml sAgrin 18 h
  actomyosin cable network in MMP12 suppressed cells: did not restore actomyosin cable network
[1]; within 2 h post-wounding
  pMLC levels in MMP12 depleted keratinocytes: unable to rescue the severely diminished pMLC levels
[1]; within 2 h post-wounding, sAgrin pre-treatment
  pMLC activation in Agrin depleted cells: restored
HaCaT cells; 10 μg/ml sAgrin 18-24 h
  traction force at migrating leading edge of MMP12 depleted keratinocytes: failed to induce sufficient traction force
HaCaT cells; [3]
  collective traction stress at the leading front: significantly enhanced
  coordinated velocity fields and fluidic collective migration (PIV): significantly enhanced
[2]; Agrin knockdown fibroblasts and keratinocytes, 10 μg/ml sAgrin 18 h
  scratch wound-responsive migration velocities (rescue of Agrin knockdown): in part, rescued
[2]; HaCaT, 10 μg/ml sAgrin 18 h
  migration of MMP 1 and 10 knockdown keratinocytes: not restored by sAgrin treatment
[2]; HaCaT/mouse keratinocytes
  migratory rates with increasing concentrations of sAgrin: accelerated migratory rates
[2]; human and mouse keratinocytes, 10 μg/ml sAgrin 18 h
  migration of MMP12 depleted keratinocytes: failed to stimulate migration
[2]; sAgrin 10 μg/ml, 4 h
  K17 expressing leader keratinocyte migration in vitro: enhanced the K17 expressing leader keratinocyte migration
